Assay results from publication doi:10.1101/388868.

Biological target: C. elegans UNC-13 long isoform residues 1-258 bearing the K49E mutation (C. elegans)
Test: ITC

Kd: 1290 nM
B1: C. elegans UNC-10 residues 62-121 WT (domain or fragment)
chain: KLVGTQDDAICQICQKTKFADGIGHKCFYCQLRSCARCGGRAQSKNKAIWACSLCQKRQQ
